What was measured:
Test in all cases: ITC
γHV68 M11 = target: T1, γHV68 M11 (murine γ-herpesvirus 68, UniProt P89884 1-136)
T1 sequence: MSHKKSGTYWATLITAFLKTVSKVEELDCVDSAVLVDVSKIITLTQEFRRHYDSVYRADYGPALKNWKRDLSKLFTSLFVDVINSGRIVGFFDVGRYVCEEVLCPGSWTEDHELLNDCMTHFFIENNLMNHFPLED

KSHV Bcl-2 = target: T2, KSHV Bcl-2 (Kaposi's sarcoma-associated HV, UniProt P90504)
T2 sequence: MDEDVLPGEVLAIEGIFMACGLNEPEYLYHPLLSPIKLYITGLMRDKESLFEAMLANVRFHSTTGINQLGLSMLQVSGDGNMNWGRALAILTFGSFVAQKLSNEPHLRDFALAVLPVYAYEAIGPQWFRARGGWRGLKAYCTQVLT

cellular Bcl-2 = cellular Bcl-2 (UniProt P10415 1-211)
Chain of cellular Bcl-2 (P10415 1-211): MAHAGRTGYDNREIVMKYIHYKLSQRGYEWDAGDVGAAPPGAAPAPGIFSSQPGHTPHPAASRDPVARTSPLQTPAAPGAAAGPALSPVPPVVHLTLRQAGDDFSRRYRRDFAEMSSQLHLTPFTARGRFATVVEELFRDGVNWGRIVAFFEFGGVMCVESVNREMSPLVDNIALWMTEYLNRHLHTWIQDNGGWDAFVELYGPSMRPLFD

Row | Binder | Kd (γHV68 M11) | Kd (KSHV Bcl-2) | Kd (cellular Bcl-2)
1 | DGGTMENLSRRLKVTGDLFDIMSGQT (peptide, UniProt Q14457 105-130, looked up) [Beclin 1 BH3 domain] | 1.1 µM | 13.3 µM | 8 µM
2 | MBP•Beclin 1(1–135)•His6 (domain or fragment, human, UniProt Q14457 1-135, looked up) MEGSKTSNNSTMQVSFVCQRCSQPLKLDTSFKILDRVTIQELTAPLLTTAQAKPGETQEEETNSGEEPFIETPRQDGVSRRFIPPARMMSTESANSFTLIGEASDGGTMENLSRRLKVTGDLFDIMSGQTDVDHP | 0.2 µM | 54.2 µM | 8.6 µM

— publication PMC2755179 (Autophagy, 2008)
